Target: T1, recombinant SARS-CoV-2 nucleocapsid protein (Severe acute respiratory syndrome …, UniProt P0DTC9)
T1 construct: SARS-CoV-2 nucleocapsid protein; also called NP; N-protein
Test: ELISA; peptide competition ELISA: plate coated with 0.1 ug/ml recombinant SARS-CoV-2 NP overnight at 4°C; 40 μl mBG17 pre-incubated 1 h at room temperature with 40 μg (approximately 30 nMol) of a single peptide fragment, then applied to the plate in triplicate; HRP goat anti-mouse detection; percent of no-peptide control
Conditions: both partners purified

B1: mBG17 anti-SARS-CoV-2 nucleocapsid protein mouse monoclonal antibody (recombinant) (antibody, V domains shown)
VH: EVKLEESGGGLVQPGGSMKFSCVASGFTFSDYWMNWVRQSPDKGLEWVAEIRLKSNNYATHYAASVKGRFTISRDDSKSSVYLQMNNLRAEDSGIYYCTRSAMDYWGQGTSVTVSS
VL: DIVMSQSPSSLAVSVGEKITMSCKSSQSLLYTSDQKNYLAWFQQKPGQSPKLLIFWASTRDSGVPDRFTGSGSGTDFTLTISSVKAEDLAVYYCQQFYNYPRTFGGGTKLEI
notes: VH of mBG17; VL of mBG17; also called recombinant mBG17 antibody; source: recombinant antibody produced in 293F cells (as described in Terry et al., 2021)
  binding result: binds
